Measurements from patent publication EP1189630B1.

Molecular target: bovine hemoglobin (bovine) (UniProt P01966)
Experiment: solid-phase ligand binding assay (ELISA), hemoglobin-coated wells; one value printed for rHA2, RgpA and Kgp

Sequence of UniProt P01966 (P01966 2-142 limits assumed, chain 1 of 2): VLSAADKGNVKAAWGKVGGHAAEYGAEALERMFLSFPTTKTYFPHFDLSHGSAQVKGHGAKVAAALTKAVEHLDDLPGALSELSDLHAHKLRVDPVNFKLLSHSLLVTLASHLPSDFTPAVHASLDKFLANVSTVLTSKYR
Sequence of UniProt P01966 (P02070 whole entry, chain 2 of 2, further chain): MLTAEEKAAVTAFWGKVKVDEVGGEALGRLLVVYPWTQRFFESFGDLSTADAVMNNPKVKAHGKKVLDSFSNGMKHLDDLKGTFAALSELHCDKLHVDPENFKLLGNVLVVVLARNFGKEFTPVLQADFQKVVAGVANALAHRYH

Work on “polydomain Arg-gingipain RgpA isolated from P. gingivalis (ATCC 33277) (from UniProt P28784 228-991) (enzyme)” yielded a Kd of 2.1 nM.
